From publication PMC2722380 come the findings set out here.

The target of this experiment is His-tagged p55 fusion protein (recombinant full length human erythrocyte p55), expressed in E. coli (human) (UniProt Q00013). The experiment is described as follows: SPR.
His-tagged p55 fusion protein (recombinant full length human erythrocyte p55), expressed in E. coli (human), sequence (Q00013 whole entry, the tested form may be a part): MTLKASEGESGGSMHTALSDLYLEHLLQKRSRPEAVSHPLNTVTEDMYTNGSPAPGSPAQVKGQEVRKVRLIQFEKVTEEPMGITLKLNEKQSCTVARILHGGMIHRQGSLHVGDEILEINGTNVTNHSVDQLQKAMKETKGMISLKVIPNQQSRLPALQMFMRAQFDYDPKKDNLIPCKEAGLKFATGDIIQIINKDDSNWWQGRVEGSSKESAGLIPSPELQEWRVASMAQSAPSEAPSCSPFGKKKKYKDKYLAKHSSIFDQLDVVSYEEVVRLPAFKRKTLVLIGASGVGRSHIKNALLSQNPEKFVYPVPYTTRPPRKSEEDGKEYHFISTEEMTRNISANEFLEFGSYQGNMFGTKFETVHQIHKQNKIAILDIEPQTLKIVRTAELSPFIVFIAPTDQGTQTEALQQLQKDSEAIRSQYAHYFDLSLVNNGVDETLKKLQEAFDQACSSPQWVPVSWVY

Turning to “MBP fusion of the exon 5-encoded peptide of protein 4.1R (domain or fragment)”, the equilibrium dissociation constant (Kd) was determined as 15 nM, the koff stood at 0.0024 s⁻¹ and the kon was found to be 160000 M⁻¹ s⁻¹.
As for “MBP fusion of the exon 10-encoded peptide of protein 4.1R (domain or fragment)”, the Kd was found to be 30 nM and the dissociation rate constant (koff) came to 0.0018 s⁻¹.
In the case of “MBP-FERMΔExon 5 fusion protein of human protein 4.1R (lacks exon 5, contains exon 10) (domain or fragment)”, the Kd worked out at 132 nM, the off-rate constant (koff) stood at 0.0029 s⁻¹ and the kon worked out at 22000 M⁻¹ s⁻¹.
